Results on 4 substances are retold here after patent publication US11155577B2, “Thiol-ene based peptide stapling and uses thereof” (University of Utah Research Foundation, priority 2015, dated 2021).

Bridge positions count the residues as written; N and C are the ends. Square brackets hold non-standard residues; d marks the D form. S5 = C=CCCC[C@](C)(N)C(=O)O; Ae = not defined here

The nature of data set [1]: Circular dichroism (CD) evaluation of alpha helicity. Type of data set: physicochemical. As to conditions: in water, 25° C., 100 μM peptide. The procedure: All CD spectra were recorded on an AVIV Model 410 spectrophotometer (AVIV) in water in a 1 mm QS quartz cuvette (Stama) at 25° C. Wavelength scans were performed at 1-nm resolution with 1-s averaging time. Data from double scans were averaged, blank subtracted, and normalized to mean residue ellipticity by the following equation; [θ]=100×θ/C×l×(n−1), where C is concentration of protein in mM, l is path length in centimeters, and n is the number of residues in the protein. The concentrations of the protein samples used for CD experiments were 100 μM. The percentage helicity was calculated from the […] at 222 nm using helical models as previously reported (Y. H. Chen, J. T. Yang, K. H. Chau. Biochemistry 1974, 13, 3350-3359).
Background: Circular dichroism is the unequal absorption of left and right circularly polarised light.

The target of another data set is T1, p53-MDM2 interaction (Homo sapiens, UniProt Q00987).
T1 construct: purchased Enzo Life Sciences
The data set is described as follows: ELISA assay for p53-MDM2 interactions. Type of data set: binding. As to conditions: 1-hour incubation with p53-MDM2 protein complexes. The method, then: The ELISA kit was purchased from Enzo Life Sciences (New York, USA). TMB substrate was purchased from Cell Signaling Technology (Massachusetts. USA). The assay was performed according to the manufacture's protocol. Briefly, p53 antibody was coated on a 96-well plate overnight. After the coating, peptides and p53-MDM2 protein complexes were diluted in assay buffer and added to the wells. After 1-hour incubation, all wells were washed and detection antibody was added. After another 1-hour incubation, SA-HRP was added and incubated for 30 minutes before TMB substrate was added. 1N HCl was then added to stop the color development and the signal was measure using automatic plate reader (BioTek Synergy Neo).
A general note: An ELISA detects its analyte on a solid surface through an enzyme-linked reagent.

Data set [2] has as its system p53-null HCT-116 colorectal carcinoma cells. Description: Cell-viability assay (CellTiter Glo), HCT-116 p53 null. It is filed as cell-based. As to conditions: 24-hour incubation. The procedure: (§1) Both HCT-116 cell lines, i.e., HCT-116 p53 wild-type and HCT-116 p53 null, were obtained from Dr. Trudy Oliver (University of Utah). Cell lines were cultured in 10% FBS media (DMEM, Pen/Strep). Briefly. 20,000 cells/well in 1% FBS media were seeded in 96-well plates. After 24 hours, stapled peptides with various concentrations were added to each well. After another 24-hour incubation, media were aspirated and CellTiter Glo reagent was added according to the protocol from Promega. Luminescence signal was measured by automatic plate reader (BioTek Synergy Neo).
A general note: In ATP-based viability assays light output follows the ATP content of the culture.

The test system of data set [3] is p53 wild-type HCT-116 colorectal carcinoma cells. As to conditions: F. Bernal et al., Cancer Cell 2010; cited from earlier work.
For data set [4] the test system is unchanged. The data set is described as follows: Cell-viability assay (CellTiter Glo), HCT-116 p53 wild-type. Type of data set: cell-based. As to conditions: 24-hour incubation. The procedure: as §1
Data set [5] relates to p53-null HCT-116 colorectal carcinoma cells. As to conditions: F. Bernal et al., Cancer Cell 2010; cited from earlier work.

T1 sequence (Q00987 whole entry): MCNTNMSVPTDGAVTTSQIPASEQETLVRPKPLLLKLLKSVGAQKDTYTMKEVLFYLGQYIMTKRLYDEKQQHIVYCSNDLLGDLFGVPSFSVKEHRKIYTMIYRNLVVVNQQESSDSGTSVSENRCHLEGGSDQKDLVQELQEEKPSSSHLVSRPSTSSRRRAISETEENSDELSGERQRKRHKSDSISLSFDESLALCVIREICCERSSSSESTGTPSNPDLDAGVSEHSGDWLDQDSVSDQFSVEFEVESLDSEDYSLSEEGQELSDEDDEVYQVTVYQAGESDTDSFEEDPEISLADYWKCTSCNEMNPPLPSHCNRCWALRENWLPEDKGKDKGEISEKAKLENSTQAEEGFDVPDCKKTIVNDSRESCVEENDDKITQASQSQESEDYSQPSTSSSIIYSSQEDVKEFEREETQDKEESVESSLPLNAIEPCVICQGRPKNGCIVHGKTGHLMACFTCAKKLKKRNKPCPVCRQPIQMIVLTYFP

Take “Ac-Glu-Asn-Pro-GLu-S5-Ile-Leu-Asp-S5-His-Val-Gln-Arg-Val-Met-NH2 (Ac-ENPE[S5]ILD[S5]HVQRVM-NH2; staple 5-9; SMILES CC[C@H](C)[C@@H]1NC(=O)[C@@](C)(NC(=O)[C@H](CCC(=O)O)NC(=O)[C@@H]2CCCN2C(=O)[C@H](CC(N)=O)NC(=O)[C@H](CCC(=O)O)NC(C)=O)CCCC=CCCC[C@@](C)(C(=O)N[C@@H](Cc2c[nH]cn2)C(=O)N[C@H](C(=O)N[C@@H](CCC(N)=O)C(=O)N[C@@H](CCCNC(=N)N)C(=O)N[C@H](C(=O)N[C@@H](CCSC)C(N)=O)C(C)C)C(C)C)NC(=O)[C@H](CC(=O)O)NC(=O)[C@H](CC(C)C)NC1=O) [Peptide 9]”: in data set [1], the “alpha helicity (CD spectra)” value is listed as “strong alpha-helical characteristics”.

“Ac-Glu-Asn-Pro-Glu-Cys-Ile-Leu-Asp-Cys-His-Val-Gln-Arg-Val-Met-NH2 (Ac-ENPECILDCHVQRVM-NH2; cysteine pairing not given here) [Peptide 10, unstapled axin homologue with 2 Cys residues]”: the “alpha helicity (CD spectra)” value in data set [1] is on record as “low alpha-helical property”.

As for “Ae-Gln-Ser-Gln-Gln-Thr-Phe-Cys-Asn-Leu-Trp-Arg-Leu-Leu-Cys-Gln-Asn-NH2 (Ae-QSQQTFCNLWRLLCQN-NH2; not fully specified; printed as Ae-Gln-Ser-Gln-Gln-Thr-Phe-Cys-Asn-Leu-Trp-Arg-Leu-Leu-Cys-Gln-Asn-NH2; cysteine pairing not given here; reading uncertain) [Peptide 13, unstapled p53 homologue with 2 Cys residues]”, the “blocking of the p53-MDM2 interaction” value with p53-MDM2 interaction is “did not block the p53-MDM2 interaction”.

As for “Ac-Gln-Ser-Gln-Gln-Thr-Phe-R8-Asn-Leu-Trp-Arg-Leu-Leu-S5-Gln-Asn-NH2 [Peptide 12]”, the “induction of apoptosis / cell viability in p53 null cells” value in data set [2] is listed as “not p53 null cells”. In addition, the “alpha helicity (CD spectra)” value in data set [1] was “significant increase of alpha helicity compared to the unstapled peptide 13”. In addition, the “induction of cell apoptosis in p53 wild-type cells (previously reported)” value in data set [3] is listed as “selectively induces cell apoptosis in p53 wild-type cells”. In addition, the “induction of apoptosis / cell viability in p53 wild-type cells” value in data set [4] is given as “induction of apoptosis in p53 wild-type cells”. Also, the “induction of cell apoptosis in p53 null cells (previously reported)” value in data set [5] is listed as “not p53 null cells”.
